{"source": "patent US7598352B2", "about": "“Method of identifying polypeptide monobodies which bind to target proteins and use thereof” (University of Rochester, priority 2000, dated 2009)", "molecules": {"B1": {"name": "SRC-1: NR-box fragment (residues 570-780) of steroid receptor coactivator-1, natural coactivator of ER (protein)", "chain": "PSRLNIQPAKAESKDNKEIASILNEMIQSDNSSSDGKPLDSGLLHNNDRLSDGDSKYSQTSHKLVQLLTTTAEQQLRHADIDTSCKDVLSCTGTSNSASANSSGGSCPSSHSSLTERHKILHRLLQEGSPSDITTLSVEPDKKDSASTSVSVTGQVQGNSSIKLELDASKKKESKDHQLLRYLLDKDEKDLRSTPNLSLDDVKVKVEKKEQ", "modifications": "left off: large carriers"}, "B2": {"name": "Clone F2-2#11: pYT45B3F7 library monobody, E2 screen; FG loop RVMDMLL (SEQ ID No: 44) (protein)", "chain": "MQVSDVPRDLEVVAATPTSLLISWDAPAVTVRYYRITYGETGGNSPVQEFTVPGSKSTATISGLKPGVDYTITVYAVTGRVMDMLLSKPISINYRT", "modifications": "left off: large carriers"}, "B3": {"name": "F2-2#10 (protein)", "chain": "MQVSDVPRDLEVVAATPTSLLISWDAPAVTVRYYRITYGETGGNSPVQEFTVPGSKSTATISGLKPGVDYTITVYAVTGRVRDLLMSKPISINYRT", "modifications": "left off: large carriers"}, "B4": {"name": "Clone 33: pYT45B3F7 library monobody, OHT screen; FG loop TWVRPNQ (SEQ ID No: 49) (protein)", "chain": "MQVSDVPRDLEVVAATPTSLLISWDAPAVTVRYYRITYGETGGNSPVQEFTVPGSKSTATISGLKPGVDYTITVYAVTGTWVRPNQSKPISINYRT", "modifications": "left off: large carriers"}, "B5": {"name": "Clone 23,31,E31,3,4,5: pYT45B3F7 library monobody, E2 screen; FG loop LRLMLAG (SEQ ID No: 36), wild-type BC loop (protein)", "chain": "MQVSDVPRDLEVVAATPTSLLISWDAPAVTVRYYRITYGETGGNSPVQEFTVPGSKSTATISGLKPGVDYTITVYAVTGLRLMLAGSKPISINYRT", "modifications": "left off: large carriers"}}, "type_in_all_cases": "cell-based", "key": {"[1]": {"biological_target": "T1, ERα-EF (residues 297-595, the E and F domains of Estrogen Receptor α) (Homo sapiens, UniProt P03372, G400V)", "T1 construct": "expressed in transfected cells; host or cells: Saccharomyces cerevisiae RFY206 (mated with EGY48 for the survival screens)", "T1 sequence (P03372 with tags, fused parts or gaps G400V)": "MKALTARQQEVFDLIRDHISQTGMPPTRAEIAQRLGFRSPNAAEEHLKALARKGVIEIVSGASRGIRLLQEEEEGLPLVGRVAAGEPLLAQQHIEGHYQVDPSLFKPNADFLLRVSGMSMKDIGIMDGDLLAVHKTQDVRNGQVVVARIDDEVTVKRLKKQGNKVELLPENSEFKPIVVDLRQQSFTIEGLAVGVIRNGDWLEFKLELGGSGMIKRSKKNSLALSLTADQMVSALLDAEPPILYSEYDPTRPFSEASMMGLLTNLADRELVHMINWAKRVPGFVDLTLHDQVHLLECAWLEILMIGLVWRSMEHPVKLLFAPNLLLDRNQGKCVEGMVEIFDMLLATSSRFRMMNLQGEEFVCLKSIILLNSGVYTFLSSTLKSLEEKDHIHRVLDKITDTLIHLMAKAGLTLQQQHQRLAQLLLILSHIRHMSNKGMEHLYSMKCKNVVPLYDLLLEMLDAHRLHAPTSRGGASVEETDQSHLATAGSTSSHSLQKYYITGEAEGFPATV", "experiment": "Quantitative β-galactosidase yeast two-hybrid assay, ERα-EF bait", "details": "for binding to different ERα-EF/agonist complexes: agonists E2, estriol, diethylstilbestrol, genistein, FIGS. 15A-D", "experimental": "(§1) Quantitative assays were performed as follows. The yeast strain RFY206 was (1) first transformed with pEGERα297-595 (or pEGERα297-554) and pSH18-34 and (2) subsequently with a derivative of the pYT45 plasmid encoding a particular monobody. Yeast cells were grown overnight at 30° C. in YC Glc-his-ura-trp media. The culture was then spun down, the media were discarded, and the cells were resuspended in YC Gal Raf-his-ura-trp media containing a ligand at a final cell density of 0.2 OD660 nm in a total volume of 175 μl in the wells of a deep 96-well plate. Ligands used were E2, ICI182,780, OHT, raloxifene, progesterone, estriol, diethylstilbestrol, and genistein. The ligand concentration was 1 μM except for genistein (10 μM). After incubating for six hours at 30° C. with shaking, 175 μl of β--galactosidase assay buffer (60 mM Na2HPO4, 40 mM NaH2PO4, 10 mM KCl, 1 mM MgSO4, 0.27% β-mercaptoethanol, 0.004% SDS, 4 mg/ml 2-nitrophenyl-β-D-[…], 50% Y-PER (Pierce)) was added to the culture, incubated at 30° C., then the reaction was stopped by adding 150 μl of 1M Na2CO3. After centrifugation, OD420 was measured and the β-galactosidase activity was calculated.\nThe binding specificity of the monobodies toward different ERα-EF/ligand complexes was examined using quantitative β-galactosidase assays. It has been shown that the β-galactosidase activity correlates well with the interaction affinity between the bait and prey of the yeast two-hybrid system (Estojak et al., 1995), allowing an in vivo discrimination of interaction affinity. To minimize the effect of different ligands on the expression level and degradation of the LexA-ER fusion protein, β-galactosidase activity was determined after a short incubation period (6 hours) following the addition of a ligand and the initiation of monobody production. It was confirmed that yeast samples prepared in the presence and absence of ligands contained similar levels of ERα-EF protein (FIG. 14H)."}, "[2]": {"biological_target": "T2, ERα-E (residues 297-554, the E domain of Estrogen Receptor α) (Homo sapiens, UniProt P03372, G400V)", "T2 construct": "ERα-E (residues 297-554, the E domain of Estrogen Receptor α); expressed in transfected cells; host or cells: Saccharomyces cerevisiae RFY206", "T2 sequence (P03372 297-554 G400V)": "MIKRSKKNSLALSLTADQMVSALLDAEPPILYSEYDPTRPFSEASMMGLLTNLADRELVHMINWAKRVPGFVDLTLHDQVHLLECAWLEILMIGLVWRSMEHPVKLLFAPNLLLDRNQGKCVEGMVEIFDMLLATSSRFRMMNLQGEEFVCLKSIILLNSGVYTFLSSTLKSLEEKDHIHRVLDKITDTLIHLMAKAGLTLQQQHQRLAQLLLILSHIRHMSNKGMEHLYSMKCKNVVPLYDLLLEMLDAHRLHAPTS", "experiment": "Quantitative β-galactosidase yeast two-hybrid assay, ERα-E bait (F domain deleted) compared with ERα-EF", "details": "for effect of deletion of the F domain on interaction with the ERα fragments: in the presence of E2, ERα-E vs ERα-EF, FIGS. 16A-C", "experimental": "as §1\nThe affects of the F domain (residues 551-595) on interactions of monobodies with the LBD (the E domain) of ERα was tested. The β-galactosidase activity of cells containing a LexA-ERα E domain fusion protein and a monobody-activation domain fusion protein was compared to the β-galactosidase activity of cells containing LexA-ERα-EF and the same monobody-activation domain fusion protein (FIGS. 16A-E)."}, "[3]": {"biological_target": "T1, ERα-EF (residues 297-595, the E and F domains of Estrogen Receptor α)", "experiment": "Yeast two-hybrid survival assay (LEU+ growth selection) of monobody clones", "details": "ligand ICI182,780, pYT45B3F7 library clones", "from_the_text": "Briefly, utilizing such a system, plasmids are constructed that encode two fusion proteins, the interaction of which is shown schematically in FIGS. 4A-B. The first fusion protein (also known as “bait”) contains the DNA-binding domain (e.g., LexA) fused to a known protein, in this case a nuclear receptor or fragment thereof which includes a functional ligand binding domain (NR-LBD). Any of the above-identified nuclear receptors (or fragments thereof which include a functional ligand binding domain) can be used as the bait protein or polypeptide. The second fusion protein (also known as “prey”) includes an activation domain (e.g., B42) fused to an unknown protein, in this case a polypeptide monobody, that is encoded by a cDNA which has been recombined into a plasmid as part of a combinatorial cDNA library. Both plasmids include a promoter which is operable in yeast cells and which has been ligated upstream of the fusion protein coding regions. […] In contrast, where interaction between the monobody of the prey and the nuclear receptor ligand binding domain of the bait occurs (FIG. 4B), a functional transcription factor is reconstituted, resulting in expression of the reporter gene which can be detected by an assay for the reporter gene product. […]"}}}
{"molecule": "B1", "values": [{"measurement": "binding to different ERα-EF/agonist complexes", "setting": "[1]", "result": "bind equally well"}, {"measurement": "effect of deletion of the F domain on interaction with the ERα fragments", "setting": "[2]", "result": "little effect"}]}
{"molecule": "B2", "values": [{"measurement": "sensitivity to the differences among agonist complexes", "setting": "[1]; ERα-EF/agonist complexes", "result": "most sensitive"}, {"measurement": "β-galactosidase activity among those tested", "setting": "[1]; ERα-EF/agonist complexes, FIGS. 14-16", "result": "lowest"}, {"measurement": "binding to different ERα-EF/agonist complexes", "setting": "[1]", "result": "different reactivity"}]}
{"molecule": "B3", "values": [{"measurement": "Binding Specificity ICI", "setting": "[3]", "result": "weak+"}]}
{"molecule": "B4", "values": [{"measurement": "effect of deletion of the F domain on interaction with ERα", "setting": "[2]; in the absence of a ligand", "result": "did not increase"}, {"measurement": "interactions with ERα-E and ERα-EF compared", "setting": "[2]; in the presence of OHT, FIG. 16D", "result": "similar"}, {"measurement": "interaction with ERα-E/raloxifene complex relative to ERα-EF/raloxifene complex", "setting": "[2]; raloxifene, FIG. 16D", "result": "significantly greater"}]}
{"molecule": "B5", "values": [{"measurement": "binding to different ERα-EF/agonist complexes", "setting": "[1]", "result": "bind equally well"}, {"measurement": "effect of deletion of the F domain on interaction with the ERα fragments", "setting": "[2]", "result": "little effect"}]}
